The source of these data is publication PMC5187519.

Experiment [1] deals with 30S subunit (minor ribosomal subunit). Kind of experiment: stopped-flow fluorescence; pre-steady state; 30S subunits (0.1 µM) mixed with equimolar IF3DL; intramolecular FRET of IF3DL; TAKM10 buffer, 25 °C; fit with two exponential terms; apparent rate constants.
In experiment [2] the target is 30S–IF3DL complex (UniProt P0A707). Nature of the experiment: other fluorescence titration; equilibrium; preformed 30S–IF3DL (0.5 µM) titrated with IF1 (0.1-2 µM); intramolecular FRET of IF3DL; HAKM10 buffer; one-site binding fit.
Experiment [3] shares this target. Nature of the experiment: stopped-flow fluorescence; pre-steady state; preformed 30S–IF3DL (0.1 µM) mixed with a 10-fold molar excess of IF1 (1 µM); intramolecular FRET of IF3DL; TAKM10 buffer, 25 °C; single exponential fit; apparent rate constant.

One may read the Kd as the constant that tells how readily two partners part at equilibrium. A low value points to higher affinity.

B1: IF3DL (double-labeled IF3; IF3 E166C with Atto-540Q at the CTD and Atto-488 at the NTD) (natural protein)
chain: MKGGKRVQTARPNRINGEIRAQEVRLTGLEGEQLGIVSLREALEKAEEAGVDLVEISPNAEPPVCRIMDYGKFLYEKSKSSKEQKKKQKVIQVKEIKFRPGTDEGDYQVKLRSLIRFLEEGDKAKITLRFRGREMAHQQIGMEVLNRVKDDLQELAVVESFPTKICGRQMIMVLAPKKKQ
modifications: Atto-540Q maleimide on the recombinant cysteine 166 (E166C, CTD); Atto-488 maleimide on the natural cysteine 65 (NTD)
With B1, the kapp1 (initial bimolecular encounter, 0.1 µM each) in experiment [1] stood at 16 s⁻¹.

B2: Initiation factor IF1 (natural protein)
chain: MAKEDNIEMQGTVLETLPNTMFRVELENGHVVTAHISGKMRKNYIRILTGDKVTVELTPYDLSKGRIVFRSR
Turning to B2, in the experiment with 30S–IF3DL complex [2], the Kd stood at 100 nM. In the experiment with 30S–IF3DL complex [3], the kapp (IF1-dependent FRET change at 1 µM IF1; a step after the initial binding) was 0.26 s⁻¹.
